US20060148683A1, “Detection and treatment of intravascular lesions” (priority 2001, published 2006)

System: thrombus
Assay: Treatment of a thrombus in guinea pig inferior vena cava monitored by catheter fluorescence detection
Assay type: in vivo
Conditions: guinea pig IVC thrombus; tPA delivered through the catheter after optical agent 0.02 μmol/kg
Description: A guinea pig (Harley, male) is anaesthetized. […] The vessel is allowed to recover for 10 mins. A 1 cm portion of the IVC is clamped and human thrombin (50 μL, 4 units) is injected into the vessel to promote thrombus formation. The lower clamp is opened and closed to allow partial blood flow to the segment. After 2-3 mins., the clips are removed. The thrombus is allowed to age in the animal for 30 mins. At this point, the optical agent is administered at a dose of 0.02 μmol/kg, via injection into the jugular vein. After 30 mins., a catheter with an optical fluorescence detector is inserted into the IVC and the thrombus visualized by detecting the fluorescence signal emitted by the fibrin-optical agent complexes on the thrombus. […] TNKASE™ (Tenecteplase) is a commercially approved tissue plasminogen activator (tPA) produced by recombinant DNA technology and sold by Genetech. The drug is administered intravenously at a dose of 30-50 mg, depending on patient weight.

B1: Tissue plasminogen activator (protein, UniProt P00750 36-562, looked up)
Tissue-type plasminogen …: SYQVICRDEKTQMIYQQHQSWLRPVLRSNRVEYCWCNSGRAQCHSVPVKSCSEPRCFNGGTCQQALYFSDFVCQCPEGFAGKCCEIDTRATCYEDQGISYRGTWSTAESGAECTNWNSSALAQKPYSGRRPDAIRLGLGNHNYCRNPDRDSKPWCYVFKAGKYSSEFCSTPACSEGNSDCYFGNGSAYRGTHSLTESGASCLPWNSMILIGKVYTAQNPSAQALGLGKHNYCRNPDGDAKPWCHVLKNRRLTWEYCDVPSCSTCGLRQYSQPQFRIKGGLFADIASHPWQAAIFAKHRRSPGERFLCGGILISSCWILSAAHCFQERFPPHHLTVILGRTYRVVPGEEEQKFEVEKYIVHKEFDDDTYDNDIALLQLKSDSSRCAQESSVVRTVCLPPADLQLPDWTECELSGYGKHEALSPFYSERLKEAHVRLYPSSRCTSQHLLNRTVTDNMLCAGDTRSGGPQANLHDACQGDSGGPLVCLNDGRMTLVGIISWGLGCGQKDVPGVYTKVTNYLDWIRDNMRP
notes: thrombolytic
For B1, the “Optical fluorescence signal of fibrin-optical agent complexes on thrombus (clot dissolution and lysis)” value was “optical fluorescence signal decreases”.
